From US20250277018A1 (INHIBRX BIOSCIENCES, published 2025)

T1: Cynomolgus monkey serum albumin (cynomolgus monkey)
T1 chain: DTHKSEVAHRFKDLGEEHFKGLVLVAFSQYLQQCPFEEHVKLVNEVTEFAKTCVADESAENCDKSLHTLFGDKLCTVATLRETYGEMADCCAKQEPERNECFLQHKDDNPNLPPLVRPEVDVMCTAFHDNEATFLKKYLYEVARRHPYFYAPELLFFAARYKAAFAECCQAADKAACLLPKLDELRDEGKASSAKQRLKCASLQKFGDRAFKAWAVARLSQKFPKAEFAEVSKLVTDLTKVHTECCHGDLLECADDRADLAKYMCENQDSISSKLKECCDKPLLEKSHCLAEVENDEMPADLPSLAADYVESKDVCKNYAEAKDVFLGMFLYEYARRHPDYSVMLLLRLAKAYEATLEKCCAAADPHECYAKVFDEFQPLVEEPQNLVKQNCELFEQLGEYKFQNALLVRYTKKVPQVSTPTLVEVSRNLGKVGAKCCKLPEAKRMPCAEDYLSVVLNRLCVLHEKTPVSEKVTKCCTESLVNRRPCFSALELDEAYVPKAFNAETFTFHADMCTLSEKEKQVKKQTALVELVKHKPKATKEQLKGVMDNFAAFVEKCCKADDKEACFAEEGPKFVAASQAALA

T2: Rat serum albumin (rat)
T2 chain: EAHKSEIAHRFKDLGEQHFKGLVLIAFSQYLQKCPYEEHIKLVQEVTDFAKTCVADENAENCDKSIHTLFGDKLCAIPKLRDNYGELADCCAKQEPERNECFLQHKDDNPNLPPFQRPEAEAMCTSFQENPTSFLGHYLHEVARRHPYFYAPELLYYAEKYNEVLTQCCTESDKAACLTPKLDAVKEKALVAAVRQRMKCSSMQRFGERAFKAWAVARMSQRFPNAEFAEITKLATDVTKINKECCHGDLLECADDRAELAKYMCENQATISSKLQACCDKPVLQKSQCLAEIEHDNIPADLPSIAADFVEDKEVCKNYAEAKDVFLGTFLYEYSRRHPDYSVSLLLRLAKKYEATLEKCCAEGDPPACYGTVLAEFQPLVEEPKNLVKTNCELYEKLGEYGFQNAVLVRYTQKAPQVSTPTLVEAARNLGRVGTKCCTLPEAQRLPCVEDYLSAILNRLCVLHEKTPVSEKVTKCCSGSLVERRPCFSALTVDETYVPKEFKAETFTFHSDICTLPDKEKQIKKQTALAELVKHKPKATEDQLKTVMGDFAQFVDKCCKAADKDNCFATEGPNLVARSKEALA

B1: cx5009, hz4A01v51 VHH-hIgG1-xELL-NNT-Fc (VHH)
VHH: EVQLVESGGGEVQPGGSLRLSCAASGFTFSTSGMVWVRQAPGKGLEWVSTISDDARITVYAESVKGRFTISRDNAKNTVYLQMNSLRAEDTAVYYCATYRAGSRIGSYEDYYRGQGTLVTVKP
notes: also called Hz4A01v51-NNT-hFc; 4A01v51-NNT-hFc
B2: cx12583 (VHH)
chain: GGGGDKTHTCPPCPAPGGPSVFLFPPKPKDTLMISRTPEVTCVVVDVSHEDPEVKFNWYVDGVEVHNAKTKPREEQYNSTYRVVSVLTVLHQDWLNGKEYKCKVSNKALPAPIEKTISKAKGQPREPQVYTLPPSRDELTKNQVSLTCLVKGFYPSDIAVEWESNGQPENNYKTTPPVLDSDGSFFLYSKLTVDKSRWQQGNVFSCSVMHEALHNHYTQKSLSLSPGSGGGSEVQLVESGGGEVQPGGSLRLSCAASGFTFSTSGMVWVRQAPGKGLEWVSTISDDARITVYAESVKGRFTISRDNAKNTVYLQMNSLRAEDTAVYYCATYRAGSRIGSYEDYYRGQGTLVTVKP
notes: Homodimer; also called Fc Region-GS6-VHH
B3: cx12584 (VHH)
chain: GGGGDKTHTCPPCPAPGGPSVFLFPPKPKDTLMISRTPEVTCVVVDVSHEDPEVKFNWYVDGVEVHNAKTKPREEQYNSTYRVVSVLTVLHQDWLNGKEYKCKVSNKALPAPIEKTISKAKGQPREPQVYTLPPSRDELTKNQVSLTCLVKGFYPSDIAVEWESNGQPENNYKTTPPVLDSDGSFFLYSKLTVDKSRWQQGNVFSCSVMHEALHNHYTQKSLSLSPGGGSGGGSGGGSEVQLVESGGGEVQPGGSLRLSCAASGFTFSTSGMVWVRQAPGKGLEWVSTISDDARITVYAESVKGRFTISRDNAKNTVYLQMNSLRAEDTAVYYCATYRAGSRIGSYEDYYRGQGTLVTVKP
notes: Homodimer; also called Fc Region-GS12-VHH

Key:
[1] = target: Human serum albumin (human); test: ELISA, albumin coated, monomeric sdAb titrated
[2] = target: Murine serum albumin (mouse); test: ELISA, albumin coated, monomeric sdAb titrated
[3] = target: T1, Cynomolgus monkey serum albumin; test: ELISA, albumin coated, monomeric sdAb titrated
[4] = target: T2, Rat serum albumin; test: ELISA, albumin coated, monomeric sdAb titrated
[5] = target: Human serum albumin (human); test: ELISA on coated recombinant albumin, pH 7.4, anti-human IgG1 HRP; apparent affinity
[6] = target: Murine serum albumin (mouse); test: as above
[7] = target: T1, Cynomolgus monkey serum albumin; test: as above
[8] = target: T2, Rat serum albumin; test: as above
[9] = target: T3, IL-4R (UniProt P24394 26-232, limits assumed); test: ELISA on coated IL-4R
T3 construct: also called second target
Procedure: The plates were washed 3× times in 0.05% PBST (150 μL/well) and then blocked with Casein in 0.05% PBST (200 μL/well) for 2 hours at RT. The plates were washed 3× times in 0.05% PBST, and 100 μL of titrated test articles in 0.05% PBST were added to the wells of the plate (starting 100 nM, 1:3 dilutions, 11-point titration) and incubated at 4° C. for 1 hour. […] Plates were then washed again before addition of TMB substrate (100 μL/well) that was allowed to reach RT before addition to the plate. The HRP-TMB reaction was allowed to develop for approximately 10 minutes, then TMB stop buffer was added (100 μL/well) and the absorbance was measured at 450 nm on a plate reader with absorbance at 650 nm subtracted (Molecular Devices). The data were plotted and analyzed using GraphPad Prism analysis software.

Murine serum albumin (mouse), sequence (chain, as listed by the source): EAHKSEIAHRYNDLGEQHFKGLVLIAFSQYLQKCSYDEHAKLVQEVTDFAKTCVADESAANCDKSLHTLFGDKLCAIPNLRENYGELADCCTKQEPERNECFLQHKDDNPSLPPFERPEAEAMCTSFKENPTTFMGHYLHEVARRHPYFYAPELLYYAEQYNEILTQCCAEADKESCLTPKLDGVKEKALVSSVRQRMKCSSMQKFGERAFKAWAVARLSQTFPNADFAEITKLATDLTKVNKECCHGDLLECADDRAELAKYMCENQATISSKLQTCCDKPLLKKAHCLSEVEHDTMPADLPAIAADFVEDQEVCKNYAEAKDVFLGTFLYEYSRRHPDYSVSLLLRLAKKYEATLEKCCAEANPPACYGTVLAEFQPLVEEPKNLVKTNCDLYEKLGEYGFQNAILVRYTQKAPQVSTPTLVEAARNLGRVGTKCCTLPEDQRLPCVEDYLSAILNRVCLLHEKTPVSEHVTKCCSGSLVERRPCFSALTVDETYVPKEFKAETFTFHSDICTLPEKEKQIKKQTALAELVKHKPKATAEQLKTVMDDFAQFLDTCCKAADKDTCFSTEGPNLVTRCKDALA

| Binder | Kd [1] | maximal binding [1] | Kd [2] | maximal binding [2] | Kd [3] | maximal binding [3] | Kd [4] | maximal binding [4] | Kd [5] | Kd [6] | Kd [7] | Kd [8] | binding result [9] |
| --- | --- | --- | --- | --- | --- | --- | --- | --- | --- | --- | --- | --- | --- |
| B1 | < 0.3 nM | > 90% | < 0.3 nM | > 90% | < 0.3 nM | > 90% | < 0.3 nM | > 90% | ~0.2 nM | ~0.2 nM | ~0.2 nM | ~0.2 nM | – |
| B2 | – | – | – | – | – | – | – | – | – | – | – | – | no binding (tested: 100 nM (top of titration)) |
| B3 | – | – | – | – | – | – | – | – | – | – | – | – | no binding (tested: 100 nM (top of titration)) |
